In one assay the target is T1, APC2257-AA.
T1 chain: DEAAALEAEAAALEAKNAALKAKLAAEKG
Description: two-hybrid library CCmax.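 Note: natural log of median RNA to DNA barcode read ratio; higher means stronger binding.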 The note with it: mean of both orientations.

The target of a further assay is T2, APC1916-AA.
T2 chain: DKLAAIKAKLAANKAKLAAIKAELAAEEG
Description: two-hybrid library CCmax.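 Note: natural log of median RNA to DNA barcode read ratio; higher means stronger binding.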

The next assay deals with T3, APC2375-AA.
T3 chain: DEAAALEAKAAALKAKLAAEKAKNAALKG
Kind of assay: two-hybrid library CCmax.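 Note: natural log of median RNA to DNA barcode read ratio; higher means stronger binding.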 The note with it: mean of both orientations.

Another assay addresses T4, APC2724-AA.
T4 chain: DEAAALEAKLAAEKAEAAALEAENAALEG
Description: two-hybrid library CCmax.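 Note: natural log of median RNA to DNA barcode read ratio; higher means stronger binding.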 The note with it: mean of both orientations.

Another assay addresses T5, APC3881-AA.
T5 chain: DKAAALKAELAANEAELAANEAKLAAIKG
Description: two-hybrid library CCmax.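 Note: natural log of median RNA to DNA barcode read ratio; higher means stronger binding.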 The note with it: mean of both orientations.

In a further assay the target is T6, APC6088-AA.
T6 chain: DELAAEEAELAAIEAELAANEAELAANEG
Description: two-hybrid library CCmax.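 Note: natural log of median RNA to DNA barcode read ratio; higher means stronger binding.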 The note with it: mean of both orientations.

The next assay deals with T7, APC4100-AA.
T7 chain: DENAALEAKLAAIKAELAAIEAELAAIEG
Description: two-hybrid library CCmax. To be noted: mean of both orientations.

For a further assay, the target named is T8, APC7524-AA.
T8 chain: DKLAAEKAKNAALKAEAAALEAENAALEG
Description: two-hybrid library CCmax. The note with it: mean of both orientations.

The next assay addresses T9, APC9182-AA.
T9 chain: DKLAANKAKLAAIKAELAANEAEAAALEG
Kind of assay: two-hybrid library CCmax. The note with it: mean of both orientations.

The target of another assay is T10, APC9141-AA.
T10 chain: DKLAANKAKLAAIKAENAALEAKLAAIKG
Kind of assay: two-hybrid library CCmax. To be noted: mean of both orientations.

The target in the next assay is T11, APC542-AA.
T11 chain: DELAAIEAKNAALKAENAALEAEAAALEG
Description: two-hybrid library CCmax. To be noted: mean of both orientations.

For the next assay, the target named is T12, APC3323-AA.
T12 chain: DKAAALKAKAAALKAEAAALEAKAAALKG
Description: two-hybrid library CCmax. To be noted: mean of both orientations.

The target of the next assay is T13, APC9806-AA.
T13 chain: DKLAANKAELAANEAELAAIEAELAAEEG
Description: two-hybrid library CCmax. The note with it: mean of both orientations.

In a further assay the target is T14, APC1987-AA.
T14 chain: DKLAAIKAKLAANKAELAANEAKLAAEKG
Kind of assay: two-hybrid library CCmax. The note with it: mean of both orientations.

The target of the next assay is T15, APC8401-AA.
T15 chain: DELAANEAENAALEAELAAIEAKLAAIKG
Kind of assay: two-hybrid library CCmax. The note with it: mean of both orientations.

A further assay addresses T16, APC8516-AA.
T16 chain: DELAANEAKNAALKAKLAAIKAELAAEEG
Description: two-hybrid library CCmax. To be noted: mean of both orientations.

The target of the next assay is T17, APC222-AA.
T17 chain: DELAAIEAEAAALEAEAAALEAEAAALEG
Description: two-hybrid library CCmax. The note with it: mean of both orientations.

Another assay concerns the target T18, APC2474-AA.
T18 chain: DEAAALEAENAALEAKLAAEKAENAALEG
Kind of assay: two-hybrid library CCmax. To be noted: mean of both orientations.

The target in a further assay is T19, APC2811-AA.
T19 chain: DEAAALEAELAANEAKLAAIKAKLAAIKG
Description: two-hybrid library CCmax. The note with it: mean of both orientations.

The next assay addresses T20, APC4336-AA.
T20 chain: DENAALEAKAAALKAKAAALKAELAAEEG
Kind of assay: two-hybrid library CCmax. The note with it: mean of both orientations.

In another assay the target is T21, APC3354-AA.
T21 chain: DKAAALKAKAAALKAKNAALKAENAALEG
Kind of assay: two-hybrid library CCmax. To be noted: mean of both orientations.

A further assay concerns the target T22, APC3265-AA.
T22 chain: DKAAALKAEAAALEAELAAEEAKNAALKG
Kind of assay: two-hybrid library CCmax. To be noted: mean of both orientations.

A further assay has as its target T23, APC5009-AA.
T23 chain: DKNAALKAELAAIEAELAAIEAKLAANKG
Kind of assay: two-hybrid library CCmax. To be noted: mean of both orientations.

A further assay has as its target T24, APC2543-AA.
T24 chain: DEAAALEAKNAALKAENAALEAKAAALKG
Description: two-hybrid library CCmax. The note with it: mean of both orientations.

For the next assay, the target named is T25, APC5531-AA.
T25 chain: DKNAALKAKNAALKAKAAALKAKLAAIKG
Description: two-hybrid library CCmax. To be noted: mean of both orientations.

In another assay the target is T26, APC2556-AA.
T26 chain: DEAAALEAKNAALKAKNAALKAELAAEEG
Description: two-hybrid library CCmax. To be noted: mean of both orientations.

The target of a further assay is T27, APC2981-AA.
T27 chain: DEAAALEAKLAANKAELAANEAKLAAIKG
Kind of assay: two-hybrid library CCmax. The note with it: mean of both orientations.

The target in a further assay is T28, APC9291-AA.
T28 chain: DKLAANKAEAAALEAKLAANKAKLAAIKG
Kind of assay: two-hybrid library CCmax. To be noted: mean of both orientations.

For a further assay, the target named is T29, 4H908-bN.
T29 chain: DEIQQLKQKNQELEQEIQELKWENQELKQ
Kind of assay: two-hybrid library CCNG1.

The target in another assay is T30, P11mS.
T30 chain: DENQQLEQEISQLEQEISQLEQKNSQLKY
Description: two-hybrid library CCNG1.

The target of the next assay is T31, 4H953-bA.
T31 chain: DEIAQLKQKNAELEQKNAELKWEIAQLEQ
Description: two-hybrid library CCNG1.

The next assay addresses T32, 4H968-bA.
T32 chain: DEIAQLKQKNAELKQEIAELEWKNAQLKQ
Description: two-hybrid library CCNG1.

The target of a further assay is T33, 4H883-bA.
T33 chain: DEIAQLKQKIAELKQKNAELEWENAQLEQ
Description: two-hybrid library CCNG1.

Another assay deals with T34, 4H754-bA.
T34 chain: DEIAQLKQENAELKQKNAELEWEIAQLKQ
Description: two-hybrid library CCNG1.

For another assay, the target named is T35, 4H855-bA.
T35 chain: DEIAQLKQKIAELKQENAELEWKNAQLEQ
Kind of assay: two-hybrid library CCNG1.

Another assay has as its target T36, 4H908-bA.
T36 chain: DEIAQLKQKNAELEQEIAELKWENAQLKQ
Description: two-hybrid library CCNG1.

The target in the next assay is T37, 4H797-bA.
T37 chain: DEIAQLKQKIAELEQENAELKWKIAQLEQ
Kind of assay: two-hybrid library CCNG1.

Another assay addresses T38, 4H967-bA.
T38 chain: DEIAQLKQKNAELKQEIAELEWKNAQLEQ
Kind of assay: two-hybrid library CCNG1.

A further assay addresses T39, 4H780-bA.
T39 chain: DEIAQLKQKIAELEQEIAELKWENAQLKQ
Kind of assay: two-hybrid library CCNG1.

Another assay deals with T40, 4H918-bA.
T40 chain: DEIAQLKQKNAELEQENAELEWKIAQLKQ
Kind of assay: two-hybrid library CCNG1.

B1: APC1916-AA (peptide)
chain: DKLAAIKAKLAANKAKLAAIKAELAAEEG
On to B1, for which the interaction score in the assay with APC2257-AA was -1.73; with APC1916-AA it was -1.89; with APC2375-AA it was -1.88; with APC2724-AA, -1.83; with APC3881-AA it was -1.78; with APC6088-AA it was -1.82. Also, the interaction score with APC4100-AA is 0.352; in the assay with APC7524-AA, -1.57; with APC9182-AA, -1.82; with APC9141-AA, -1.7; in the assay with APC542-AA, -1.62; in the assay with APC3323-AA it was -1.94. The interaction score with APC9806-AA is -2.04; in the assay with APC1987-AA, -2.06; in the assay with APC8401-AA, -0.817; with APC8516-AA, -1.83; with APC222-AA, -1.45; with APC2474-AA, -1.31. In addition, the interaction score in the assay with APC2811-AA was -2.01; with APC4336-AA, -1.64; in the assay with APC3354-AA, -1.8; in the assay with APC3265-AA it was -1.75; in the assay with APC5009-AA it was -0.00974; with APC2543-AA it was -1.62. For the same molecule, the interaction score is -1.75 with APC5531-AA, -1.71 with APC2556-AA, -1.78 with APC2981-AA and -2.08 with APC9291-AA.

B2: 4H754-bA (peptide)
chain: DEIAQLKQENAELKQKNAELEWEIAQLKQ
Regarding B2, the interaction score with 4H908-bN is -0.94; in the assay with P11mS, -1.53; in the assay with 4H953-bA, 0.496; with 4H968-bA it was -0.368; in the assay with 4H883-bA it was -0.374; in the assay with 4H754-bA it was 1.57. Moreover, the interaction score with 4H855-bA was -0.914; with 4H908-bA, -0.879; with 4H797-bA, -0.233; with 4H967-bA, -0.575; in the assay with 4H780-bA it was -1.48; in the assay with 4H918-bA it was -0.579.

The values are drawn from PMC10397247.
